Assays:
Assay in all cases: biochemical
Settings in all cases: read-out: Percentages of residual activities of the kinase reaction
IKKe = IKKe (Homo sapiens, UniProt Q14164)
Protocol: (§1) Selectivity testing (Table 2) was performed on the commercial basis at the Division of Signal Transduction Therapy, University of Dundee. ATP concentrations that were used in testing were close to the Km value of the kinase.

MNK1 = MNK1 (Homo sapiens, UniProt Q9BUB5)
Protocol: as §1

DYRK1A = DYRK1A (Homo sapiens, UniProt Q13627)
Protocol: as §1

IRR = IRR (Homo sapiens, UniProt P14616)
Protocol: as §1

PRK2 = PRK2 (Homo sapiens, UniProt Q16513)
Protocol: as §1

PIM2 = PIM2 (Homo sapiens, UniProt Q9P1W9)
Protocol: as §1

S6K1 = S6K1 (Homo sapiens, UniProt P23443)
Protocol: as §1

BRK = BRK (Homo sapiens, UniProt Q13882)
Protocol: as §1

FGF-R1 = FGF-R1 (Homo sapiens, UniProt P11362)
Protocol: as §1

PAK6 = PAK6 (Homo sapiens, UniProt Q9NQU5)
Protocol: as §1

MELK = MELK (Homo sapiens, UniProt Q14680)
Protocol: as §1

PAK5 = PAK5 (Homo sapiens, UniProt Q9P286)
Protocol: as §1

MST2 = MST2 (Homo sapiens, UniProt Q13188)
Protocol: as §1

CHK1 = CHK1 (Homo sapiens, UniProt O14757)
Protocol: as §1

PKD1 = PKD1 (Homo sapiens, UniProt Q15139)
Protocol: as §1

PDK1 = PDK1 (Homo sapiens, UniProt O15530)
Protocol: as §1

EPH-B3 = EPH-B3 (Homo sapiens, UniProt P54753)
Protocol: as §1

MEKK1 = MEKK1 (Homo sapiens, UniProt Q13233)
Protocol: as §1

HIPK1 = HIPK1 (Homo sapiens, UniProt Q86Z02)
Protocol: as §1

MINK1 = MINK1 (Homo sapiens, UniProt Q8N4C8)
Protocol: as §1

ERK2 = ERK2 (Homo sapiens, UniProt P28482)
Protocol: as §1

ROCK 2 = ROCK 2 (Homo sapiens, UniProt O75116)
Protocol: as §1

MARK3 = MARK3 (Homo sapiens, UniProt P27448)
Protocol: as §1

PKCγ = PKCγ (Homo sapiens, UniProt P05129)
Protocol: as §1

BRSK2 = BRSK2 (Homo sapiens, UniProt Q8IWQ3)
Protocol: as §1

Src = Src (Homo sapiens, UniProt P12931)
Protocol: as §1

PKCa = PKCa (Homo sapiens, UniProt P17252)
Protocol: as §1

JAK2 = JAK2 (Homo sapiens, UniProt O60674)
Protocol: as §1

ASK1 = ASK1 (Homo sapiens, UniProt Q99683)
Protocol: as §1

MKK6 = MKK6 (Homo sapiens, UniProt P52564)
Protocol: as §1

Aurora A = Aurora A (Homo sapiens, UniProt O14965)
Protocol: as §1

NEK6 = NEK6 (Homo sapiens, UniProt Q9HC98)
Protocol: as §1

EPH-A4 = EPH-A4 (Homo sapiens, UniProt P54764)
Protocol: as §1

PAK4 = PAK4 (Homo sapiens, UniProt O96013)
Protocol: as §1

GCK = GCK (Homo sapiens, UniProt Q12851)
Protocol: as §1

CDK2-Cyclin A = CDK2-Cyclin A (Homo sapiens, UniProt P24941)
Protocol: as §1

CSK = CSK (Homo sapiens, UniProt P41240)
Protocol: as §1

p38g MAPK = p38g MAPK (Homo sapiens, UniProt P53778)
Protocol: as §1

MARK1 = MARK1 (Homo sapiens, UniProt Q9P0L2)
Protocol: as §1

EPH-B4 = EPH-B4 (Homo sapiens, UniProt P54760)
Protocol: as §1

PIM1 = PIM1 (Homo sapiens, UniProt P11309)
Protocol: as §1

Chain of BRSK2 (Q8IWQ3 whole entry, species assumed): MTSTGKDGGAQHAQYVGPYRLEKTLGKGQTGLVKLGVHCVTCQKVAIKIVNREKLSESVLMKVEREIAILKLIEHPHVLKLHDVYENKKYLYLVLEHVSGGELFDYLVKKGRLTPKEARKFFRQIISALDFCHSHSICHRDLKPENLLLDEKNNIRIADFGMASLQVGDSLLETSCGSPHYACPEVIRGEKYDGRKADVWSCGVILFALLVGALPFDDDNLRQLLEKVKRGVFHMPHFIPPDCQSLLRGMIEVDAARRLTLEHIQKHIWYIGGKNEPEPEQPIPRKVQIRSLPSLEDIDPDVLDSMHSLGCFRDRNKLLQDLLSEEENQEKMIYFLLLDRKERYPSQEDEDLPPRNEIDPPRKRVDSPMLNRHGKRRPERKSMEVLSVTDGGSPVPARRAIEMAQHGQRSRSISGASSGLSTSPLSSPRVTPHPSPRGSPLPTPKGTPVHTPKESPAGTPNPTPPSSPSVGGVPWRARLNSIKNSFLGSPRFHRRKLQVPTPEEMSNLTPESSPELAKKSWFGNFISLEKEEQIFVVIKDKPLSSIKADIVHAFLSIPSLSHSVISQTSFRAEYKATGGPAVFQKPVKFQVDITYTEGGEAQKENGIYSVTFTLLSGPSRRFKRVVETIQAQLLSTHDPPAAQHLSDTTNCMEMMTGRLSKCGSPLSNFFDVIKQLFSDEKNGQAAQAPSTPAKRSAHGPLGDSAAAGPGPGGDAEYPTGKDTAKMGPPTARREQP
Chain of PIM2 (Q9P1W9 whole entry, species assumed): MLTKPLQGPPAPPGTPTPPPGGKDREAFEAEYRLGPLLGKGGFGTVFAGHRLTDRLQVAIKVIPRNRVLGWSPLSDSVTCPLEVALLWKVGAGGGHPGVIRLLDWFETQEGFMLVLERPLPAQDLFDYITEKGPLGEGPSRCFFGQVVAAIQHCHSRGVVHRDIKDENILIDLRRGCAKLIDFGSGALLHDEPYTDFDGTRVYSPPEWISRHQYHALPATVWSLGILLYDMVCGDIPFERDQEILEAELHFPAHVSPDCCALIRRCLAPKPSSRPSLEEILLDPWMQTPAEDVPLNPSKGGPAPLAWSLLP
Chain of BRK (Q13882 whole entry, species assumed): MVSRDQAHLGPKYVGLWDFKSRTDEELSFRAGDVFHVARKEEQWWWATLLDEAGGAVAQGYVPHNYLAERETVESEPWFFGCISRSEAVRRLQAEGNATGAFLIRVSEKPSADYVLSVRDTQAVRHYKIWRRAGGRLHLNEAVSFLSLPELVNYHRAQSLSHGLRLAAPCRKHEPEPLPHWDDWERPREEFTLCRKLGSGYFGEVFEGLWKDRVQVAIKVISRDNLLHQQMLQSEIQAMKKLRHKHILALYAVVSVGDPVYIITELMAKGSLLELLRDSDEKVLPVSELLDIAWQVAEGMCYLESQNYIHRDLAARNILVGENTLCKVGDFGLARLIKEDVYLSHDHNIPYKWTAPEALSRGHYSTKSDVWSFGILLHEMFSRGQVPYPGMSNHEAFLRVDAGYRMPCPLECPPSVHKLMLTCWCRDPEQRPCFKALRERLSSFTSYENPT
Chain of PKD1 (Q15139 whole entry): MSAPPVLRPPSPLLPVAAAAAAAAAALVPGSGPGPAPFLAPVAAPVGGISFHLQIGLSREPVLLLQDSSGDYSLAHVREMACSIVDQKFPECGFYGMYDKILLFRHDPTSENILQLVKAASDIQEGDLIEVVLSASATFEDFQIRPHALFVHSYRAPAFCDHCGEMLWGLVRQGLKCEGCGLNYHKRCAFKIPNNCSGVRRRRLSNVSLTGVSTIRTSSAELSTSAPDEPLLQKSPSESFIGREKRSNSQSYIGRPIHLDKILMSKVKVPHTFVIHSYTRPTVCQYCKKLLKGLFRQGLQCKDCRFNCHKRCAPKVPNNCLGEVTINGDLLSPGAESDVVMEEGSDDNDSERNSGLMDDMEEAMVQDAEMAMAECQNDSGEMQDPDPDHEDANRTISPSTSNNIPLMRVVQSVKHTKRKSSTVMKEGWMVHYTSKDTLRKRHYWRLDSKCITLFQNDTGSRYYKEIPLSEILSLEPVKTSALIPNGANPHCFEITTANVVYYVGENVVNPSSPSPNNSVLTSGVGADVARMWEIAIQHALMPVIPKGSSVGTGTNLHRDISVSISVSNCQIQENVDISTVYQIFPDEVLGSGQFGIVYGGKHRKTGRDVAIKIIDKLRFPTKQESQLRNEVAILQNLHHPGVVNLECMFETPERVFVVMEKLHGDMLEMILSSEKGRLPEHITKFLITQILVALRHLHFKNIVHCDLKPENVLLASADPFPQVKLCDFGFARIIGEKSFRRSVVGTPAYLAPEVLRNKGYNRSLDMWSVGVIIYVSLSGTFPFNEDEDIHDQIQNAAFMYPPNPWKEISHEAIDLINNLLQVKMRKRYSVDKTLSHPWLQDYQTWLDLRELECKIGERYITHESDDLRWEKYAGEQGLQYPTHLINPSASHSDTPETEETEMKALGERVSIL
Chain of HIPK1 (Q86Z02 whole entry, species assumed): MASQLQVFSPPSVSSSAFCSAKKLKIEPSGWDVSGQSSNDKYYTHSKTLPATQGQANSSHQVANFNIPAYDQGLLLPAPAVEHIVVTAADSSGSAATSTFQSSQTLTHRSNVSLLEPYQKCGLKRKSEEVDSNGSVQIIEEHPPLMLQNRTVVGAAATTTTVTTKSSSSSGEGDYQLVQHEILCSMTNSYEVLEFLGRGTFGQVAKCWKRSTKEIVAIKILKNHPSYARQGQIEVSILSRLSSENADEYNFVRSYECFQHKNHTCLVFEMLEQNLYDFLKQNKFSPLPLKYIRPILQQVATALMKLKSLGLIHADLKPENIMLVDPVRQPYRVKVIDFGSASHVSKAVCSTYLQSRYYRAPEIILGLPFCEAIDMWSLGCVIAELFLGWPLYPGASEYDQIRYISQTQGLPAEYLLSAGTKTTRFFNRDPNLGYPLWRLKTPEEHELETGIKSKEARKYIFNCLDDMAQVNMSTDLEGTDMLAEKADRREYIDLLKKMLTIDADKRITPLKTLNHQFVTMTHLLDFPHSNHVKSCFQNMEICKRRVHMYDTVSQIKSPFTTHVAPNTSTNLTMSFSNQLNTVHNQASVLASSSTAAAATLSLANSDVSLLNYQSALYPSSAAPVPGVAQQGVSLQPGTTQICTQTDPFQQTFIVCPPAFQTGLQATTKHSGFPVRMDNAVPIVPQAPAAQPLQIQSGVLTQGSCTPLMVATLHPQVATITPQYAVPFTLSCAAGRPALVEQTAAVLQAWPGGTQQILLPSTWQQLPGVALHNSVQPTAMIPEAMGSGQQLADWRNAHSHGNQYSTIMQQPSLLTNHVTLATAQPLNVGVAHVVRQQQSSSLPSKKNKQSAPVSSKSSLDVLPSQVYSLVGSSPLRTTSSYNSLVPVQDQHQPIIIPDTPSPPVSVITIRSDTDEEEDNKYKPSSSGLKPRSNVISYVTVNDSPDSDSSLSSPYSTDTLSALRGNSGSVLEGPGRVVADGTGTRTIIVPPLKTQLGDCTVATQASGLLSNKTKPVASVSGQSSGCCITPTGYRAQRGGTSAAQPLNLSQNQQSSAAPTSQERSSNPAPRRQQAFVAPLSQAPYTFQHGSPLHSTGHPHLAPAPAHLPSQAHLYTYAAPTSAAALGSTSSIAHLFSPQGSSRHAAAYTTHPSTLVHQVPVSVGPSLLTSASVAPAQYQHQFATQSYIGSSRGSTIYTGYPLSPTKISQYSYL
Chain of PRK2 (Q16513 whole entry, species assumed): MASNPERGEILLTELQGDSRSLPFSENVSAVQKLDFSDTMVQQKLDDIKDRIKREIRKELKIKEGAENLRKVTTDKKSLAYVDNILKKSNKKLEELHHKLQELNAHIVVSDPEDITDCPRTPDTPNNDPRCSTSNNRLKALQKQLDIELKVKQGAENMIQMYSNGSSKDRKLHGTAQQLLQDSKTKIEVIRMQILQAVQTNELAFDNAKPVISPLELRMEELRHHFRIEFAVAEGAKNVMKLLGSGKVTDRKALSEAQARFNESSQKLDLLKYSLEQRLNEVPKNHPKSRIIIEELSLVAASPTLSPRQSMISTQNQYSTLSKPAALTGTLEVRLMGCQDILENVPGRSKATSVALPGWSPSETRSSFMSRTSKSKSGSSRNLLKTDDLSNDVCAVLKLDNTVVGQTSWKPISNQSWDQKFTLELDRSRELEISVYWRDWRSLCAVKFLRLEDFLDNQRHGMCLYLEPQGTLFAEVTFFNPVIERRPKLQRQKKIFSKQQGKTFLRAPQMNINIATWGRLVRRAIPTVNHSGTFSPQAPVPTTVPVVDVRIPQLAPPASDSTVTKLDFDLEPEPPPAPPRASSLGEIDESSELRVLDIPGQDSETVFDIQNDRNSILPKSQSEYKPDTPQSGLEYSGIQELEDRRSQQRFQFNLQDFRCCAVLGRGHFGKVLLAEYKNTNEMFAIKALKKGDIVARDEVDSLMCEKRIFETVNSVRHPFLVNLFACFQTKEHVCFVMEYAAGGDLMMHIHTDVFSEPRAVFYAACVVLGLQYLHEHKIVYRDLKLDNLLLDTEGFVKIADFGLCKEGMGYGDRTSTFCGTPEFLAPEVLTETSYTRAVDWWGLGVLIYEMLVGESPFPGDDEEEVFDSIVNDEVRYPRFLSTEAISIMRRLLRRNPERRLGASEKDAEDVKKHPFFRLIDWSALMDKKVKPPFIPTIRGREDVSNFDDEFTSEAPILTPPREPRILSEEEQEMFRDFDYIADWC
Chain of ERK2 (P28482 whole entry, species assumed): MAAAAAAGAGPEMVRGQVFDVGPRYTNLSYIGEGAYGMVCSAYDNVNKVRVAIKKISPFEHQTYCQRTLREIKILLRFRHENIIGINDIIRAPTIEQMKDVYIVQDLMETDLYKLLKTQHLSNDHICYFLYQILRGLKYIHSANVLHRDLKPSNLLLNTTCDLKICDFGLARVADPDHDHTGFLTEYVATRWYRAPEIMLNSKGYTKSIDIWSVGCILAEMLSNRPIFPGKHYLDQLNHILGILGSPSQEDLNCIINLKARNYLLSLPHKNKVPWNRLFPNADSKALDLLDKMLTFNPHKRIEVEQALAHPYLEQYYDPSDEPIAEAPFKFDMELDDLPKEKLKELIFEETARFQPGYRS

Structure (SMILES): CN(C)c1ccc2c(c1)Oc1cc(N(C)C)ccc1C21OC(=O)c2cc(C(=O)NCCCC[C@@H](NC(=O)[C@@H](CCCNC(=N)N)NC(=O)[C@@H](CCCNC(=N)N)NC(=O)[C@@H](CCCNC(=N)N)NC(=O)[C@@H](CCCNC(=N)N)NC(=O)[C@@H](CCCNC(=N)N)NC(=O)[C@@H](CCCNC(=N)N)NC(=O)CCCCCNC(=O)[C@@H](CCCNC(=N)N)NC(=O)CCCCCNC(=O)c3ccc(-c4ccnc(N)n4)s3)C(N)=O)ccc21 [ARC-669]
- remaining activity at 1 µM (IKKe): 37%
- remaining activity at 1 µM (MNK1): 74%
- remaining activity at 1 µM (DYRK1A): 27%
- remaining activity at 1 µM (IRR): 32%
- remaining activity at 1 µM (PRK2): 4%
- remaining activity at 1 µM (PIM2): 15%
- remaining activity at 1 µM (S6K1): 4%
- remaining activity at 1 µM (BRK): 100%
- remaining activity at 1 µM (FGF-R1): 54%
- remaining activity at 1 µM (PAK6): 35%
- remaining activity at 1 µM (MELK): 31%
- remaining activity at 1 µM (PAK5): 18%
- remaining activity at 1 µM (MST2): 94%
- remaining activity at 1 µM (CHK1): 29%
- remaining activity at 1 µM (PKD1): 37%
- remaining activity at 1 µM (PDK1): 88%
- remaining activity at 1 µM (EPH-B3): 75%
- remaining activity at 1 µM (MEKK1): 19%
- remaining activity at 1 µM (HIPK1): 94%
- remaining activity at 1 µM (MINK1): 51%
- remaining activity at 1 µM (ERK2): 80%
- remaining activity at 1 µM (ROCK 2): 10%
- remaining activity at 1 µM (MARK3): 20%
- remaining activity at 1 µM (PKCγ): 13%
- remaining activity at 1 µM (BRSK2): 77%
- remaining activity at 1 µM (Src): 106%
- remaining activity at 1 µM (PKCa): 15%
- remaining activity at 1 µM (JAK2): 80%
- remaining activity at 1 µM (ASK1): 74%
- remaining activity at 1 µM (MKK6): 107%
- remaining activity at 1 µM (Aurora A): 86%
- remaining activity at 1 µM (NEK6): 71%
- remaining activity at 1 µM (EPH-A4): 76%
- remaining activity at 1 µM (PAK4): 32%
- remaining activity at 1 µM (GCK): 10%
- remaining activity at 1 µM (CDK2-Cyclin A): 78%
- remaining activity at 1 µM (CSK): 51%
- remaining activity at 1 µM (p38g MAPK): 104%
- remaining activity at 1 µM (MARK1): 65%
- remaining activity at 1 µM (EPH-B4): 98%
- remaining activity at 1 µM (PIM1): 3%
